In test [1] the target is human serum albumin (human) (UniProt P02768). The test can be described thus: SPR; Biacore T200, as described by Yin and co-authors (ref. 40); DOTA conjugates without radionuclide.
For test [2], the target named is murine serum albumin (murine) (UniProt P07724). The description is as above.
In test [3] the target is human epidermal growth factor receptor type 2 (HER2) (human (endogenous in SKOV-3 and BT-474)) (UniProt P04626). The test can be described thus: radioligand binding; LigandTracer Yellow on living SKOV-3 cells, 3 and 9 nM (1, 3 and 9 nM for [177Lu]Lu-G3), room temperature, with 100 nM human serum albumin; InteractionMap analysis, 1:2 model; apparent.

UniProt P02768, sequence (P02768 25-609): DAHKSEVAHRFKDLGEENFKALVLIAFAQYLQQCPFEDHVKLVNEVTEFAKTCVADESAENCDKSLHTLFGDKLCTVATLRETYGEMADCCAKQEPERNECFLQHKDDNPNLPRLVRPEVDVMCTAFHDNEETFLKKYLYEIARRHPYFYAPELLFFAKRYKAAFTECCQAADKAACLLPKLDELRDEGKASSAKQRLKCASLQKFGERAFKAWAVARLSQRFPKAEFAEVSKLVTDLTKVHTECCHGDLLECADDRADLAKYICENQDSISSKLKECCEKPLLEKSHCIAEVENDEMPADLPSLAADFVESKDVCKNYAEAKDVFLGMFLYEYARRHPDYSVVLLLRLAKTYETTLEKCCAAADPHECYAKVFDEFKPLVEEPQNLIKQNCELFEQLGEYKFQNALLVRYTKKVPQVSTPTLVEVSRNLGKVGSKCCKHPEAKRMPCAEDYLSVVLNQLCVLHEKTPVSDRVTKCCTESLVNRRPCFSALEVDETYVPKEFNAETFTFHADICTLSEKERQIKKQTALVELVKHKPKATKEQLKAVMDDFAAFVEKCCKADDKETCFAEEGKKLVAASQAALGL
UniProt P07724, sequence (P07724 25-608): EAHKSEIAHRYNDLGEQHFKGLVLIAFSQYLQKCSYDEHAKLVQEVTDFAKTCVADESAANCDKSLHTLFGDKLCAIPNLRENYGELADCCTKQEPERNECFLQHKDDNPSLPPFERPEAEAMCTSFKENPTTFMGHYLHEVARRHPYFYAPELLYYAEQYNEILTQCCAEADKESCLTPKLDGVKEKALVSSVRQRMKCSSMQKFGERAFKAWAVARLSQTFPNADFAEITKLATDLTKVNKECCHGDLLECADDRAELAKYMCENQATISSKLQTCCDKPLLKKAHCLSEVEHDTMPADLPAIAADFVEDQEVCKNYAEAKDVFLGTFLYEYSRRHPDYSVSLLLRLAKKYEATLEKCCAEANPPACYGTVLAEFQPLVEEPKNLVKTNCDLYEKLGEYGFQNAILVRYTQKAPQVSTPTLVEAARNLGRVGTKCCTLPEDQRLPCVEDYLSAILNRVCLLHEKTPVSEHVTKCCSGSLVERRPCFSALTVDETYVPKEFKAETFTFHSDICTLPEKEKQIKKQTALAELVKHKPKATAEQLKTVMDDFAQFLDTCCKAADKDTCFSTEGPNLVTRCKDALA

As usually defined, the Kd is the constant that tells how readily two partners part at equilibrium. As usually defined, the koff is the rate constant with which the complex falls apart. As a reminder, the kon is the second-order rate constant of association. Higher therefore signals faster complex formation. In test [1], ABD-G3-DOTA (designed binder) registered a Kd of 35.4 nM, a koff of 0.000302 s⁻¹ and a kon of 8530 M⁻¹ s⁻¹. In test [2], this substance came in with an equilibrium dissociation constant (Kd) of 81.3 nM, a koff of 0.00191 s⁻¹ and a kon of 23500 M⁻¹ s⁻¹. In test [3], the KD1 (first interaction, 1:2 model) is 1290 pM and the KD2 (second interaction, 1:2 model) is 67 nM.

Turning to “non-ABD-fused DARPin G3 (control protein) (designed binder)”, in test [3], the KD2 (second interaction, 1:2 model) turned out to be 34 nM.

With G3-ABD-DOTA (designed binder), in test [1], the Kd is 1.82 nM, the koff was found to be 0.000238 s⁻¹ and the kon worked out at 131000 M⁻¹ s⁻¹. For the same substance, in test [2], the Kd was determined as 8.46 nM, the koff worked out at 0.00518 s⁻¹ and the association rate constant (kon) worked out at 61300 M⁻¹ s⁻¹. Moreover, in test [3], the KD1 (first interaction, 1:2 model) amounted to 901 pM and the KD2 (second interaction, 1:2 model) came to 24 nM.
